Where two headings read alike, the source gives them in different places. Values belong to the binder of their own block, whether it stands above or below them.
Legend:
Assay in all cases: two-hybrid library CCNG1;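 also: natural log of median RNA to DNA barcode read ratio; higher means stronger binding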
4H906-bN = molecular target: T1, 4H906-bN
T1 chain: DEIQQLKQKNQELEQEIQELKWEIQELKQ

4H3631-bN = molecular target: T2, 4H3631-bN
T2 chain: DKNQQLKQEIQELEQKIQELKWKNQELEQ

O10-bA = molecular target: T3, O10-bA
T3 chain: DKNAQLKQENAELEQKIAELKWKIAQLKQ

4H3817-bN = molecular target: T4, 4H3817-bN
T4 chain: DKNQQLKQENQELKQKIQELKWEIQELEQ

4H850-bN = molecular target: T5, 4H850-bN
T5 chain: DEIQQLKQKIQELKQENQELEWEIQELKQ

4H584-bN = molecular target: T6, 4H584-bN
T6 chain: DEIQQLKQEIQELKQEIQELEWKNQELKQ

4H619-bN = molecular target: T7, 4H619-bN
T7 chain: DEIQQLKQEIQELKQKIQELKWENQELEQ

4H570-bN = molecular target: T8, 4H570-bN
T8 chain: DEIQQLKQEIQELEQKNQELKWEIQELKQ

4H3638-bN = molecular target: T9, 4H3638-bN
T9 chain: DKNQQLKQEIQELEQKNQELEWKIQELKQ

4H3974-bN = molecular target: T10, 4H3974-bN
T10 chain: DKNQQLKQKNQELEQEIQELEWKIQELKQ

4H797-bH = molecular target: T11, 4H797-bH
T11 chain: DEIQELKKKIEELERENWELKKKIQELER

4H2673-bA = molecular target: T12, 4H2673-bA
T12 chain: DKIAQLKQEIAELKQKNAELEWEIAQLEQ

4H3112-bH = molecular target: T13, 4H3112-bH
T13 chain: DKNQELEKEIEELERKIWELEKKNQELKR

4H338-bH = molecular target: T14, 4H338-bH
T14 chain: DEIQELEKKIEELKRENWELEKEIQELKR

4H717-bH = molecular target: T15, 4H717-bH
T15 chain: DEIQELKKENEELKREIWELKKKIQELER

4H953-bH = molecular target: T16, 4H953-bH
T16 chain: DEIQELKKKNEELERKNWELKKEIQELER

4H3185-bH = molecular target: T17, 4H3185-bH
T17 chain: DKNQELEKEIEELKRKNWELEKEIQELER

4H883-bH = molecular target: T18, 4H883-bH
T18 chain: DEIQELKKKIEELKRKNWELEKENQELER

4H2667-bH = molecular target: T19, 4H2667-bH
T19 chain: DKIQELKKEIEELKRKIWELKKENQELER

4H4001-bH = molecular target: T20, 4H4001-bH
T20 chain: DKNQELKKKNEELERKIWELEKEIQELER

4H2442-bH = molecular target: T21, 4H2442-bH
T21 chain: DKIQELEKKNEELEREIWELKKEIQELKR

4H1845-bH = molecular target: T22, 4H1845-bH
T22 chain: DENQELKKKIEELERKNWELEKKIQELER

4H3427-bH = molecular target: T23, 4H3427-bH
T23 chain: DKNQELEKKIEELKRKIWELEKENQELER

4H2576-bH = molecular target: T24, 4H2576-bH
T24 chain: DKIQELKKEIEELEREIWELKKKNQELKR

4H331-bH = molecular target: T25, 4H331-bH
T25 chain: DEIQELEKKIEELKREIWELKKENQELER

4H2729-bH = molecular target: T26, 4H2729-bH
T26 chain: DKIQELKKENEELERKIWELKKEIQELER

4H1828-bH = molecular target: T27, 4H1828-bH
T27 chain: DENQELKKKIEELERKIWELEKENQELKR

4H568-bH = molecular target: T28, 4H568-bH
T28 chain: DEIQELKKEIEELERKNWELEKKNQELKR

4H908-bH = molecular target: T29, 4H908-bH
T29 chain: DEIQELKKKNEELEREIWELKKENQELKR

4H3297-bN = molecular target: T30, 4H3297-bN
T30 chain: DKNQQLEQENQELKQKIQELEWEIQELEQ

4H454-bH = molecular target: T31, 4H454-bH
T31 chain: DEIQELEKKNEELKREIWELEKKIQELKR

4H967-bH = molecular target: T32, 4H967-bH
T32 chain: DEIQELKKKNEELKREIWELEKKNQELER

4H918-bH = molecular target: T33, 4H918-bH
T33 chain: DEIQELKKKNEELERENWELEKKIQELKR

4H2618-bH = molecular target: T34, 4H2618-bH
T34 chain: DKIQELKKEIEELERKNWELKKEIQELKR

4H3855-bH = molecular target: T35, 4H3855-bH
T35 chain: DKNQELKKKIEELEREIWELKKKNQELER

4H3782-bH = molecular target: T36, 4H3782-bH
T36 chain: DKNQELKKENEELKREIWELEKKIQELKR

4H72-bH = molecular target: T37, 4H72-bH
T37 chain: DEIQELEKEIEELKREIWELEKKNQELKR

4H607-bH = molecular target: T38, 4H607-bH
T38 chain: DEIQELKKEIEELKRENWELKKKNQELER

4H754-bH = molecular target: T39, 4H754-bH
T39 chain: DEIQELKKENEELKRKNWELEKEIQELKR

4H687-bH = molecular target: T40, 4H687-bH
T40 chain: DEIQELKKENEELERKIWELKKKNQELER

4H3354-bH = molecular target: T41, 4H3354-bH
T41 chain: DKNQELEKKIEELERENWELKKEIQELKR

O7-bA = molecular target: T42, O7-bA
T42 chain: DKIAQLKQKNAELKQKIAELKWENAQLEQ

O16-bA = molecular target: T43, O16-bA
T43 chain: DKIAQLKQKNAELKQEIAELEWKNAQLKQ

O3-bA = molecular target: T44, O3-bA
T44 chain: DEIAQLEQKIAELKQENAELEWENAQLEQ

O12-bA = molecular target: T45, O12-bA
T45 chain: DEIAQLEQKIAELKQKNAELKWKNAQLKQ

O4-bA = molecular target: T46, O4-bA
T46 chain: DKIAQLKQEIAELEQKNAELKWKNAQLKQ

O15-bA = molecular target: T47, O15-bA
T47 chain: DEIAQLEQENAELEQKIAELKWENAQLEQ

O5-bA = molecular target: T48, O5-bA
T48 chain: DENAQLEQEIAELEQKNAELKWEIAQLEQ

O14-bA = molecular target: T49, O14-bA
T49 chain: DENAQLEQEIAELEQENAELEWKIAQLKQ

O13-bA = molecular target: T50, O13-bA
T50 chain: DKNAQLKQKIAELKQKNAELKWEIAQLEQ

O6-bA = molecular target: T51, O6-bA
T51 chain: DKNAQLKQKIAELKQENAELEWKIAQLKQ

O8-bA = molecular target: T52, O8-bA
T52 chain: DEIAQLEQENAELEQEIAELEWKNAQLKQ

O2-bA = molecular target: T53, O2-bA
T53 chain: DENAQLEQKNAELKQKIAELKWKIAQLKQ

O11-bA = molecular target: T54, O11-bA
T54 chain: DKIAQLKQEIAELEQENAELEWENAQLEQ

O9-bA = molecular target: T55, O9-bA; settings: mean of both orientations
T55 chain: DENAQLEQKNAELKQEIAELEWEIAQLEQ

4H1446-bH = molecular target: T56, 4H1446-bH
T56 chain: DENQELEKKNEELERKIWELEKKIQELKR

4H3189-bH = molecular target: T57, 4H3189-bH
T57 chain: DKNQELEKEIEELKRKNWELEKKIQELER

4H607-bA = molecular target: T58, 4H607-bA
T58 chain: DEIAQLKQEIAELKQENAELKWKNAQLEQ

4H2697-bH = molecular target: T59, 4H2697-bH
T59 chain: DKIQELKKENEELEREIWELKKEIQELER

4H370-bH = molecular target: T60, 4H370-bH
T60 chain: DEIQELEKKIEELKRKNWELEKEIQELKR

4H4001-bA = molecular target: T61, 4H4001-bA
T61 chain: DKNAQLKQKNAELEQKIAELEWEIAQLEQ

4H462-bH = molecular target: T62, 4H462-bH
T62 chain: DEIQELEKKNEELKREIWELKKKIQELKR

4H3606-bH = molecular target: T63, 4H3606-bH
T63 chain: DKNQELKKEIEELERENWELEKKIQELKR

4H949-bA = molecular target: T64, 4H949-bA
T64 chain: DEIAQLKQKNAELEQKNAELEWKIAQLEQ

4H2610-bH = molecular target: T65, 4H2610-bH
T65 chain: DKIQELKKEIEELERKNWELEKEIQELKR

4H3843-bH = molecular target: T66, 4H3843-bH
T66 chain: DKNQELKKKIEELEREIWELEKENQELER

interaction score (4H906-bN): -0.602
interaction score (4H3631-bN): -0.0832
interaction score (O10-bA): 0.22
interaction score (4H3817-bN): -0.125
interaction score (4H850-bN): -1.06
interaction score (4H584-bN): 0.98
interaction score (4H619-bN): -0.252
interaction score (4H570-bN): -1.51
interaction score (4H3638-bN): -1.15
interaction score (4H3974-bN): -0.31
Binder: DKNQQLKQEIQELEQKIQELKWKNQELEQ [4H3631-bN]

interaction score (4H797-bH): 0.474
interaction score (4H2673-bA): -3.95
interaction score (4H3112-bH): 0.767
interaction score (4H338-bH): 1.16
interaction score (4H717-bH): 0.163
interaction score (4H953-bH): -0.675
interaction score (4H3185-bH): -0.478
interaction score (4H883-bH): 0.204
interaction score (4H2667-bH): 1.08
interaction score (4H4001-bH): 0.309
interaction score (4H2442-bH): 0.0564
interaction score (4H1845-bH): -0.21
interaction score (4H3427-bH): 0.362
interaction score (4H2576-bH): -1.69
interaction score (4H331-bH): -0.37
interaction score (4H2729-bH): -0.147
interaction score (4H1828-bH): 0.57
interaction score (4H568-bH): -1.34
interaction score (4H908-bH): -0.285
interaction score (4H3297-bN): -1.01
interaction score (4H454-bH): 0.741
interaction score (4H967-bH): -0.867
interaction score (4H918-bH): 0.157
interaction score (4H2618-bH): 0.369
interaction score (4H3855-bH): 0.0964
interaction score (4H3782-bH): 0.484
interaction score (4H72-bH): 0.102
interaction score (4H607-bH): -2.38
interaction score (4H754-bH): 0.147
interaction score (4H687-bH): -0.438
interaction score (4H3354-bH): 0.672
Binder: DENQELKKKIEELERKIWELEKENQELKR [4H1828-bH]

interaction score (O7-bA): 0.923
interaction score (O16-bA): 0.945
interaction score (O3-bA): -1.28
interaction score (O12-bA): -0.395
interaction score (O10-bA; mean of both orientations): 0.0957
interaction score (O4-bA): -0.577
interaction score (O15-bA): 0.0908
interaction score (O5-bA): -0.944
interaction score (O14-bA): -1.3
interaction score (O13-bA): 0.636
interaction score (O6-bA): 0.6
interaction score (O8-bA): 0.126
interaction score (O2-bA): 1.79
interaction score (O11-bA): 0.88
interaction score (O9-bA): 1.74
Binder: DKNAQLKQENAELEQKIAELKWKIAQLKQ [O10-bA]

interaction score (4H797-bH): -0.466
interaction score (4H1446-bH): 0.821
interaction score (4H3112-bH): -0.67
interaction score (4H338-bH): 1.17
interaction score (4H717-bH): -0.635
interaction score (4H953-bH): -0.325
interaction score (4H3185-bH): 0.0116
interaction score (4H883-bH): 0.0186
interaction score (4H2667-bH): -0.551
interaction score (4H4001-bH): 1.24
interaction score (4H3189-bH): -1.86
interaction score (4H2442-bH): 0.731
interaction score (4H607-bA): 0.727
interaction score (4H2697-bH): 1.08
interaction score (4H370-bH): -0.404
interaction score (4H1845-bH): 0.192
interaction score (4H3427-bH): 0.933
interaction score (4H2576-bH): 0.59
interaction score (4H331-bH): 1.32
interaction score (4H2729-bH): 0.679
interaction score (4H1828-bH): 0.624
interaction score (4H568-bH): -2.02
interaction score (4H4001-bA): 2.32
interaction score (4H908-bH): -0.161
interaction score (4H454-bH): 0.981
interaction score (4H967-bH): 0.346
interaction score (4H918-bH): -1.41
interaction score (4H2618-bH): -0.314
interaction score (4H3855-bH): 0.34
interaction score (4H3782-bH): 0.741
interaction score (4H462-bH): 0.0836
interaction score (4H3606-bH): -0.704
interaction score (4H72-bH): -0.157
interaction score (4H607-bH): -0.622
interaction score (4H754-bH): 0.109
interaction score (4H949-bA): -2.01
interaction score (4H2610-bH): 0.669
interaction score (4H687-bH): 0.347
interaction score (4H3843-bH): 1.3
interaction score (4H3354-bH): 0.818
Binder: DENQELEKKNEELERKIWELEKKIQELKR [4H1446-bH]
